Our source for the percent of SEPT7 depleted on immunodepletion of SEPT6, percent of SEPT7 that interacts with SEPT6 and percent of total SEPT6 precipitated with SEPT7 values is PMC3381998.

For one assay, the target named is SEPT6 (UniProt Q14141). In words: co-IP.
The next assay concerns the target SEPT7 (UniProt Q16181). Description: co-IP.

Sequence of SEPT6 (Q14141 whole entry): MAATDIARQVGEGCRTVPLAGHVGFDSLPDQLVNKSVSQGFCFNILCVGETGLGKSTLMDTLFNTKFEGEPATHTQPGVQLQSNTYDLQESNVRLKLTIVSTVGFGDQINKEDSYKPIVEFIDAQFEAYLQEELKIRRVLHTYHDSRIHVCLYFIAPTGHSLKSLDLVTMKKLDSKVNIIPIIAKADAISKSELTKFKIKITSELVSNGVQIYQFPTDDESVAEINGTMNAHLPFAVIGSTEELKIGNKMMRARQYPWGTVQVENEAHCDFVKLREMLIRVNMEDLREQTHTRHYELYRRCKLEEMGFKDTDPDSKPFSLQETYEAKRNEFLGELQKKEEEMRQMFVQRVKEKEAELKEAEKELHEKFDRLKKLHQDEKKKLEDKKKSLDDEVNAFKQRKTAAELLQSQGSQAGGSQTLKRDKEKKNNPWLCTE
Sequence of SEPT7 (Q16181 whole entry): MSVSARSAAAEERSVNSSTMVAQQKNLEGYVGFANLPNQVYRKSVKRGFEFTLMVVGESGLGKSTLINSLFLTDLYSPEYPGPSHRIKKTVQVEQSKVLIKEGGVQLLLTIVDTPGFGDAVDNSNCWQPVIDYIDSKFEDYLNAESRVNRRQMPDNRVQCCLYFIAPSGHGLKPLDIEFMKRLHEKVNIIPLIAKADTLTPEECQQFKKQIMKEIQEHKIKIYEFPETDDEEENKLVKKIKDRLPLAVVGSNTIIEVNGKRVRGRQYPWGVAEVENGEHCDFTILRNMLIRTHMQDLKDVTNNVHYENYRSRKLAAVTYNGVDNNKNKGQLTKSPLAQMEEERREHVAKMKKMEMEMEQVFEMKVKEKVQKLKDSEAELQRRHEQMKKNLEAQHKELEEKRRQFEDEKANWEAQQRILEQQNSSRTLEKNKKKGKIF

Regarding “SEPT7 (from UniProt Q16181 1-437) (natural protein)”, in the assay with SEPT6, the percent of SEPT7 depleted on immunodepletion of SEPT6 is 30% and the percent of SEPT7 that interacts with SEPT6 was 43%.

In the assay with SEPT7, “SEPT6 (from UniProt Q14141 1-434) (natural protein)” gave a percent of total SEPT6 precipitated with SEPT7 of 24%.
